Laboratory results taken from article PMC6814260 (Chembiochem : a European journal of chemical biology, 2019).

Target: the molecule itself

B1: XoxF, lanthanide-dependent methanol dehydrogenase from Methylobacterium extorquens AM1 (enzyme, UniProt C5B120 22-601, looked up)
chain: NESVLKGVANPAEQVLQTVDYANTRYSKLDQINASNVKNLQVAWTFSTGVLRGHEGSPLVVGNIMYVHTPFPNIVYALDLDQGAKIVWKYEPKQDPSVIPVMCCDTVNRGLAYADGAILLHQADTTLVSLDAKSGKVNWSVKNGDPSKGETNTATVLPVKDKVIVGISGGEFGVQCHVTAYDLKSGKKVWRGYSIGPDDQLIVDPEKTTSLGKPIGKDSSLKTWEGDQWKTGGGCTWGWFSYDPKLDLMYYGSGNPSTWNPKQRPGDNKWSMTIWARNPDTGMAKWVYQMTPHDEWDFDGINEMILTDQKFDGKDRPLLTHFDRNGFGYTLDRATGEVLVAEKFDPVVNWATKVDLDKGSKTYGRPLVVSKYSTEQNGEDVNSKGICPAALGTKDQQPAAFSPKTGLFYVPTNHVCMDYEPFRVTYTPGQPYVGATLSMYPAPGSHGGMGNFIAWDNLQGKIKWSNPEQFSAWGGALATAGDVVFYGTLEGFLKAVDSKTGKELYKFKTPSGIIGNVMTYEHKGKQHVAVLSGVGGWAGIGLAAGLTDPNAGLGAVGGYAALSSYTNLGGQLTVFSLPNN
Which “stoichiometry N” value does the source give for B1 here?
Its value is 2.
